± gives the uncertainty stated by the source.
System: HEK293T
Assay: plasma membrane surface immunostaining intensity (anti-HA, deep receptor scanning) (arbitrary fluorescence units); higher = higher plasma membrane expression

Sequence | plasma membrane surface immunostaining intensity (GPCR class: A) | plasma membrane surface immunostaining intensity (GPCR class: A (Olfactory)) | other results
MWGRLLLWPLVLGFSLSGGTQTPSVYDESGSTGGGDDSTPSILPAPRGYPGQVCANDSDTLELPDSSRALLLGWVPTRLVPALYGLVLVVGLPANGLALWVLATQAPRLPSTMLLMNLAAADLLLALALPPRIAYHLRGQRWPFGEAACRLATAALYGHMYGSVLLLAAVSLDRYLALVHPLRARALRGRRLALGLCMAAWLMAAALALPLTLQRQTFRLARSDRVLCHDALPLDAQASHWQPAFTCLALLGCFLPLLAMLLCYGATLHTLAASGRRYGHALRLTAVVLASAVAFFVPSNLLLLLHYSDPSPSAWGNLYGAYVPSLALSTLNSCVDPFIYYYVSAEFRDKVRAGLFQRSPGDTVASKASAEGGSRGMGTHSSLLQ [F2RL3] | 894 ± 240 |  | 
MDLELDEYYNKTLATENNTAATRNSDFPVWDDYKSSVDDLQYFLIGLYTFVSLLGFMGNLLILMALMKKRNQKTTVNFLIGNLAFSDILVVLFCSPFTLTSVLLDQWMFGKVMCHIMPFLQCVSVLVSTLILISIAIVRYHMIKHPISNNLTANHGYFLIATVWTLGFAICSPLPVFHSLVELQETFGSALLSSRYLCVESWPSDSYRIAFTISLLLVQYILPLVCLTVSHTSVCRSISCGLSNKENRLEENEMINLTLHPSKKSGPQVKLSGSHKWSYSFIKKHRRRYSKKTACVLPAPERPSQENHSRILPENFGSVRSQLSSSSKFIPGVPTCFEIKPEENSDVHELRVKRSVTRIKKRSRSVFYRLTILILVFAVSWMPLHLFHVVTDFNDNLISNRHFKLVYCICHLLGMMSCCLNPILYGFLNNGIKADLVSLIHCLHM [NPY5R] | 269 ± 26 |  | 
MLMNYSSATEFYLLGFPGSEELHHILFAIFFFFYLVTLMGNTVIIMIVCVDKRLQSPMYFFLGHLSALEILVTTIIVPVMLWGLLLPGMQTIYLSACVVQLFLYLAVGTTEFALLGAMAVDRYVAVCNPLRYNIIMNRHTCNFVVLVSWVFGFLFQIWPVYVMFQLTYCKSNVVNNFFCDRGQLLKLSCNNTLFTEFILFLMAVFVLFGSLIPTIVSNAYIISTILKIPSSSGRRKSFSTCASHFTCVVIGYGSCLFLYVKPKQTQAADYNWVVSLMVSVVTPFLNPFIFTLRNDKVIEALRDGVKRCCQLFRN [OR9A4] |  | 185 ± 75 | 
MKALIFAAAGLLLLLPTFCQSGMENDTNNLAKPTLPIKTFRGAPPNSFEEFPFSALEGWTGATITVKIKCPEESASHLHVKNATMGYLTSSLSTKLIPAIYLLVFVVGVPANAVTLWMLFFRTRSICTTVFYTNLAIADFLFCVTLPFKIAYHLNGNNWVFGEVLCRATTVIFYGNMYCSILLLACISINRYLAIVHPFTYRGLPKHTYALVTCGLVWATVFLYMLPFFILKQEYYLVQPDITTCHDVHNTCESSSPFQLYYFISLAFFGFLIPFVLIIYCYAAIIRTLNAYDHRWLWYVKASLLILVIFTICFAPSNIILIIHHANYYYNNTDGLYFIYLIALCLGSLNSCLDPFLYFLMSKTRNHSTAYLTK [F2RL2] | 221 ± 21 |  | 
MGNRSTADADGLLAGRGPAAGASAGASAGLAGQGAAALVGGVLLIGAVLAGNSLVCVSVATERALQTPTNSFIVSLAAADLLLALLVLPLFVYSEVQGGAWLLSPRLCDALMAMDVMLCTASIFNLCAISVDRFVAVAVPLRYNRQGGSRRQLLLIGATWLLSAAVAAPVLCGLNDVRGRDPAVCRLEDRDYVVYSSVCSFFLPCPLMLLLYWATFRGLQRWEVARRAKLHGRAPRRPSGPGPPSPTPPAPRLPQDPCGPDCAPPAPGLPRGPCGPDCAPAAPSLPQDPCGPDCAPPAPGLPPDPCGSNCAPPDAVRAAALPPQTPPQTRRRRRAKITGRERKAMRVLPVVVGAFLLCWTPFFVVHITQALCPACSVPPRLVSAVTWLGYVNSALNPVIYTVFNAEFRNVFRKALRACC [DRD4] | 602 ± 92 |  | 
MKANYSAEERFLLLGFSDWPSLQPVLFALVLLCYLLTLTGNSALVLLAVRDPRLHTPMYYFLCHLALVDAGFTTSVVPPLLANLRGPALWLPRSHCTAQLCASLALGSAECVLLAVMALDRAAAVCRPLRYAGLVSPRLCRTLASASWLSGLTNSVAQTALLAERPLCAPRLLDHFICELPALLKLACGGDGDTTENQMFAARVVILLLPFAVILASYGAVARAVCCMRFSGGRRRAVGTCGSHLTAVCLFYGSAIYTYLQPAQRYNQARGKFVSLFYTVVTPALNPLIYTLRNKKVKGAARRLLRSLGRGQAGQ [OR2I1P] |  | 132 ± 5.4 | 
MASPRSSGQPGPPPPPPPPPARLLLLLLLPLLLPLAPGAWGWARGAPRPPPSSPPLSIMGLMPLTKEVAKGSIGRGVLPAVELAIEQIRNESLLRPYFLDLRLYDTECDNAKGLKAFYDAIKYGPNHLMVFGGVCPSVTSIIAESLQGWNLVQLSFAATTPVLADKKKYPYFFRTVPSDNAVNPAILKLLKHYQWKRVGTLTQDVQRFSEVRNDLTGVLYGEDIEISDTESFSNDPCTSVKKLKGNDVRIILGQFDQNMAAKVFCCAYEENMYGSKYQWIIPGWYEPSWWEQVHTEANSSRCLRKNLLAAMEGYIGVDFEPLSSKQIKTISGKTPQQYEREYNNKRSGVGPSKFHGYAYDGIWVIAKTLQRAMETLHASSRHQRIQDFNYTDHTLGRIILNAMNETNFFGVTGQVVFRNGERMGTIKFTQFQDSREVKVGEYNAVADTLEIINDTIRFQGSEPPKDKTIILEQLRKISLPLYSILSALTILGMIMASAFLFFNIKNRNQKLIKMSSPYMNNLIILGGMLSYASIFLFGLDGSFVSEKTFETLCTVRTWILTVGYTTAFGAMFAKTWRVHAIFKNVKMKKKIIKDQKLLVIVGGMLLIDLCILICWQAVDPLRRTVEKYSMEPDPAGRDISIRPLLEHCENTHMTIWLGIVYAYKGLLMLFGCFLAWETRNVSIPALNDSKYIGMSVYNVGIMCIIGAAVSFLTRDQPNVQFCIVALVIIFCSTITLCLVFVPKLITLRTNPDAATQNRRFQFTQNQKKEDSKTSTSVTSVNQASTSRLEGLQSENHRLRMKITELDKDLEEVTMQLQDTPEKTTYIKQNHYQELNDILNLGNFTESTDGGKAILKNHLDQNPQLQWNTTEPSRTCKDPIEDINSPEHIQRRLSLQLPILHHAYLPSIGGVDASCVSPCVSPTASPRHRHVPPSFRVMVSGL [GABBR2] |  |  | plasma membrane surface immunostaining intensity (GPCR class: C): 6210 ± 48
MANITRMANHTGRLDFILMGLFRQSKHPALLSVVIFVVFLKALSGNAVLILLIHCDAHLHSPMYFFISQLSLMDMAYISVTVPKMLLDQVMGVNKVSAPECGMQMFLYLTLAGSEFFLLATMAYDRYVAICHPLRYPVLMNHRVCLFLASGCWFLGSVDGFMLTPITMSFPFCRSWEIHHFFCEVPAVTILSCSDTSLYETLMYLCCVLMLLIPVTIISSSYLLILLTVHRMNSAEGRKKAFATCSSHLTVVILFYGAAVYTYMLPSSYHTPEKDMMVSVFYTILTPVLNPLIYSLRNKDVMGALKKMLTVRFVL [OR2T29] |  | 131 ± 21 | 
MTILLNSSLQRATFFLTGFQGLEGLHGWISIPFCFIYLTVILGNLTILHVICTDATLHGPMYYFLGMLAVTDLGLCLSTLPTVLGIFWFDTREIGIPACFTQLFFIHTLSSMESSVLLSMSIDRYVAVCNPLHDSTVLTPACIVKMGLSSVLRSALLILPLPFLLKRFQYCHSHVLAHAYCLHLEIMKLACSSIIVNHIYGLFVVACTVGVDSLLIFLSYALILRTVLSIASHQERLRALNTCVSHICAVLLFYIPMIGLSLVHRFGEHLPRVVHLFMSYVYLLVPPLMNPIIYSIKTKQIRQRIIKKFQFIKSLRCFWKD [OR51G1] |  | 116 ± 20 | 
MASSWPPLELQSSNQSQLFPQNATACDNAPEAWDLLHRVLPTFIISICFFGLLGNLFVLLVFLLPRRQLNVAEIYLANLAASDLVFVLGLPFWAENIWNQFNWPFGALLCRVINGVIKANLFISIFLVVAISQDRYRVLVHPMASRRQQRRRQARVTCVLIWVVGGLLSIPTFLLRSIQAVPDLNITACILLLPHEAWHFARIVELNILGFLLPLAAIVFFNYHILASLRTREEVSRTRCGGRKDSKTTALILTLVVAFLVCWAPYHFFAFLEFLFQVQAVRGCFWEDFIDLGLQLANFFAFTNSSLNPVIYVFVGRLFRTKVWELYKQCTPKSLAPISSSHRKEIFQLFWRN [BDKRB1] | 976 ± 180 |  | 
MSQVTNTTQEGIYFILTDIPGFEASHIWISIPVCCLYTISIMGNTTILTVIRTEPSVHQRMYLFLSMLALTDLGLTLTTLPTVMQLLWFNVRRISSEACFAQFFFLHGFSFMESSVLLAMSVDCYVAICCPLHYASILTNEVIGRTGLAIICCCVLAVLPSLFLLKRLPFCHSHLLSRSYCLHQDMIRLVCADIRLNSWYGFALALLIIIVDPLLIVISYTLILKNILGTATWAERLRALNNCLSHILAVLVLYIPMVGVSMTHRFAKHASPLVHVIMANIYLLAPPVMNPIIYSVKNKQIQWGMLNFLSLKNMHSR [OR51Q1] |  | 152 ± 70 | 
MELWNFTLGSGFILVGILNDSGSPELLCATITILYLLALISNGLLLLAITMEARLHMPMYLLLGQLSLMDLLFTSVVTPKALADFLRRENTISFGGCALQMFLALTMGGAEDLLLAFMAYDRYVAICHPLTYMTLMSSRACWLMVATSWILASLSALIYTVYTMHYPFCRAQEIRHLLCEIPHLLKVACADTSRYELMVYVMGVTFLIPSLAAILASYTQILLTVLHMPSNEGRKKALVTCSSHLTVVGMFYGAATFMYVLPSSFHSTRQDNIISVFYTIVTPALNPLIYSLRNKEVMRALRRVLGKYMLPAHSTL [OR2AG1] |  | 135 ± 23 | 
MQGENFTIWSIFFLEGFSQYPGLEVVLFVFSLVMYLTTLLGNSTLILITILDSRLKTPMYLFLGNLSFMDICYTSASVPTLLVNLLSSQKTIIFSGCAVQMYLSLAMGSTECVLLAVMAYDRYVAICNPLRYSIIMNRCVCARMATVSWVTGCLTALLETSFALQIPLCGNLIDHFTCEILAVLKLACTSSLLMNTIMLVVSILLLPIPMLLVCISYIFILSTILRITSAEGRNKAFSTCGAHLTVVILYYGAALSMYLKPSSSNAQKIDKIISLLYGVLTPMLNPIIYSLRNKEVKDAMKKLLGKITLHQTHEHL [OR2K2] |  | 144 ± 20 | 
MGTDNQTWVSEFILLGLSSDWDTRVSLFVLFLVMYVVTVLGNCLIVLLIRLDSRLHTPMYFFLTNLSLVDVSYATSVVPQLLAHFLAEHKAIPFQSCAAQLFFSLALGGIEFVLLAVMAYDRYVAVCDALRYSAIMHGGLCARLAITSWVSGFISSPVQTAITFQLPMCRNKFIDHISCELLAVVRLACVDTSSNEVTIMVSSIVLLMTPFCLVLLSYIQIISTILKIQSREGRKKAFHTCASHLTVVALCYGVAIFTYIQPHSSPSVLQEKLFSVFYAILTPMLNPMIYSLRNKEVKGAWQKLLWKFSGLTSKLAT [OR2F1] |  | 181 ± 74 | 
MDPLNLSWYDDDLERQNWSRPFNGSDGKADRPHYNYYATLLTLLIAVIVFGNVLVCMAVSREKALQTTTNYLIVSLAVADLLVATLVMPWVVYLEVVGEWKFSRIHCDIFVTLDVMMCTASILNLCAISIDRYTAVAMPMLYNTRYSSKRRVTVMISIVWVLSFTISCPLLFGLNNADQNECIIANPAFVVYSSIVSFYVPFIVTLLVYIKIYIVLRRRRKRVNTKRSSRAFRAHLRAPLKGNCTHPEDMKLCTVIMKSNGSFPVNRRRVEAARRAQELEMEMLSSTSPPERTRYSPIPPSHHQLTLPDPSHHGLHSTPDSPAKPEKNGHAKDHPKIAKIFEIQTMPNGKTRTSLKTMSRRKLSQQKEKKATQMLAIVLGVFIICWLPFFITHILNIHCDCNIPPVLYSAFTWLGYVNSAVNPIIYTTFNIEFRKAFLKILHC [DRD2] | 1950 ± 620 |  | 
